B1: MIA2 (parent)
chain: DMVSNIELPTRIHEEVYFEPSSSK
B2: DULLARD (parent)
chain: LVVFTASMEIYGSAVADKLDNSRS
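Also: lentivirally expressed fusions sorted by FACS into six bins by GFP to DsRed ratio, PSI derived from sequencing read proportions per bin multiplied by bin number.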

Variants of: B1
Test: protein stability index of a GFP-peptide fusion (GPS, HEK-293T) (PSI 1-6); higher = more stable
Conditions: c terminus: a fixed tail appended
DMVSNIELPTRIHEEVYVEPSSSK showed a protein stability index of 3.8.
Work on DMVSNIELPTRIHEEVYHEPSSSK yielded a protein stability index of 4.64.
With DMVSNIELPTRIHEEVYLEPSSSK the protein stability index was 4.5.
DMVSNIELPTRIHEEVYPEPSSSK showed a protein stability index of 4.23.
Work on DMVSNIELPTRIHEEVYQEPSSSK yielded a protein stability index of 5.12.
Variant DMVSNIELPTRIHEEVYFEPMSSK has a protein stability index of 3.4.
Work on DMVSNIELPTRIHEEVYFEPYSSK yielded a protein stability index of 3.05.
With DMVSNIELPTRIHEEVYFEPTSSK the protein stability index was 3.75.
With DMVSNIELPTRIHEEVYFEPWSSK the protein stability index was 3.38.
With DMVSNIELPTRIHEEVYFEPQSSK the protein stability index was 3.9.
Work on DMVSNIELPTRIHEEVYFEPVSSK yielded a protein stability index of 3.94.
Work on DMVSNIELPTRIHEEVYFEPESSK yielded a protein stability index of 4.64.
DMVSNIELPTRIHEEVYFEPPSSK gave a protein stability index of 4.3.
DMVSNIELPTRIHEEVYFEPKSSK gave a protein stability index of 3.46.
For DMVSNIELPTRIHEEVYFEPISSK, the protein stability index was 4.
With DMVSNIELPTRIHEEVYFEPHSSK the protein stability index was 3.97.
For DMVSNIELPTRIHEEVYFEPDSSK, the protein stability index was 4.56.
Work on DMVSNIELPTRIHEEVYFEPFSSK yielded a protein stability index of 3.56.
With DMVSNIELPTRIHEEVYFEPASSK the protein stability index was 3.71.
Variant DMVSNIELPTRIHEEVYFEPCSSK has a protein stability index of 3.71.
Work on DMVSNIELPTRIHEEVYFEPNSSK yielded a protein stability index of 4.19.
For DMVSNIELPTRIHEEVYFEPRSSK, the protein stability index was 3.13.
Variant DMVSNIELPTRIHEEVYFEPLSSK has a protein stability index of 3.34.
In the case of DMVSNIELPTRIHEEVYFEPGSSK, the protein stability index is reported as 4.47.
Variant DMVSNIELPTRIHEEGYFEPSSSK has a protein stability index of 4.16.
For DMVSNIELPTRIHEECYFEPSSSK, the protein stability index was 4.33.
DMVSNIELPTRIHEELYFEPSSSK gave a protein stability index of 4.09.
For DMVSNIELPTRIHEEYYFEPSSSK, the protein stability index was 3.49.
Variant DMVSNIELPTRIHEESYFEPSSSK has a protein stability index of 4.02.
Work on DMVSNIELPTRIHEEDYFEPSSSK yielded a protein stability index of 4.77.
With DMVSNIELPTRIHEEWYFEPSSSK the protein stability index was 3.73.
Work on DMVSNIELPTRIHEEAYFEPSSSK yielded a protein stability index of 4.26.
In the case of DMVSNIELPTRIHEEHYFEPSSSK, the protein stability index is reported as 3.55.
DMVSNIELPTRIHEEMYFEPSSSK showed a protein stability index of 3.46.
DMVSNIELPTRIHEEEYFEPSSSK gave a protein stability index of 5.02.
Work on DMVSNIELPTRIHEENYFEPSSSK yielded a protein stability index of 4.47.
DMVSNIELPTRIHEERYFEPSSSK showed a protein stability index of 3.17.
Work on DMVSNIELPTRIHEETYFEPSSSK yielded a protein stability index of 4.05.
For DMVSNIELPTRIHEEKYFEPSSSK, the protein stability index was 3.89.
Work on DMVSNIELPTRIHEEQYFEPSSSK yielded a protein stability index of 4.02.
DMVSNIELPTRIHEEFYFEPSSSK gave a protein stability index of 3.87.
Variant DMVSNIELPTRIHEEIYFEPSSSK has a protein stability index of 3.87.
For DMVSNIELPTRIHEEPYFEPSSSK, the protein stability index was 4.12.
DMVSNIELPTRIHEEVYFEPSGSK gave a protein stability index of 3.85.
DMVSNIELPTRIHEEVYFEPSISK gave a protein stability index of 3.13.
Variant DMVSNIELPTRIHEEVYFEPSLSK has a protein stability index of 2.58.
For DMVSNIELPTRIHEEVYFEPSASK, the protein stability index was 4.28.
With DMVSNIELPTRIHEEVYFEPSWSK the protein stability index was 3.17.
With DMVSNIELPTRIHEEVYFEPSRSK the protein stability index was 3.73.
Work on DMVSNIELPTRIHEEVYFEPSKSK yielded a protein stability index of 3.9.
DMVSNIELPTRIHEEVYFEPSHSK gave a protein stability index of 4.35.
For DMVSNIELPTRIHEEVYFEPSFSK, the protein stability index was 3.37.
Work on DMVSNIELPTRIHEEVYFEPSNSK yielded a protein stability index of 4.12.
With DMVSNIELPTRIHEEVYFEPSMSK the protein stability index was 3.81.
In the case of DMVSNIELPTRIHEEVYFEPSQSK, the protein stability index is reported as 4.13.
Work on DMVSNIELPTRIHEEVYFEPSPSK yielded a protein stability index of 4.02.
DMVSNIELPTRIHEEVYFEPSDSK gave a protein stability index of 4.25.
Variant DMVSNIELPTRIHEEVYFEPSVSK has a protein stability index of 3.95.
Variant DMVSNIELPTRIHEEVYFEPSTSK has a protein stability index of 4.03.
Variant DMVSNIELPTRIHEEVYFEPSESK has a protein stability index of 4.13.
In the case of DMVSNIELPTRIHEEVYFEPSYSK, the protein stability index is reported as 3.08.
DMVSNIELPTRIHEEVYFEPSCSK showed a protein stability index of 3.89.
Variant DMVSNIELPTRIHEEVYFEPSSIK has a protein stability index of 3.89.
DMVSNIELPTRIHEEVYFEPSSAK gave a protein stability index of 3.2.
Work on DMVSNIELPTRIHEEVYFEPSSDK yielded a protein stability index of 4.84.
DMVSNIELPTRIHEEVYFEPSSFK gave a protein stability index of 3.11.
Work on DMVSNIELPTRIHEEVYFEPSSVK yielded a protein stability index of 3.82.
DMVSNIELPTRIHEEVYFEPSSGK gave a protein stability index of 4.28.
For DMVSNIELPTRIHEEVYFEPSSWK, the protein stability index was 3.08.
For DMVSNIELPTRIHEEVYFEPSSEK, the protein stability index was 5.16.
DMVSNIELPTRIHEEVYFEPSSPK gave a protein stability index of 3.67.
Work on DMVSNIELPTRIHEEVYFEPSSYK yielded a protein stability index of 4.18.
With DMVSNIELPTRIHEEVYFEPSSKK the protein stability index was 3.65.
For DMVSNIELPTRIHEEVYFEPSSCK, the protein stability index was 4.
DMVSNIELPTRIHEEVYFEPSSMK gave a protein stability index of 3.29.
Work on DMVSNIELPTRIHEEVYFEPSSLK yielded a protein stability index of 3.49.
DMVSNIELPTRIHEEVYFEPSSRK showed a protein stability index of 3.56.
Variant DMVSNIELPTRIHEEVYFEPSSHK has a protein stability index of 3.96.
DMVSNIELPTRIHEEVYFEPSSTK gave a protein stability index of 3.92.
DMVSNIELPTRIHEEVYFEPSSNK gave a protein stability index of 3.98.
In the case of DMVSNIELPTRIHEEVYFEPSSQK, the protein stability index is reported as 4.41.

Variants of: B2
Test: as above
Conditions: c terminus: a fixed tail appended
LVVFTASMEIYGSAVADKLDDSRS gave a protein stability index of 2.47.
Variant LVVFTASMEIYGSAVADKLDSSRS has a protein stability index of 4.01.
Work on LVVFVASMEIYGSAVADKLDNSRS yielded a protein stability index of 3.31.
LVVCTASMEIYGSAVADKLDNSRS showed a protein stability index of 1.08.
In the case of LVVFTASMEIYGSAVADKLRNSRS, the protein stability index is reported as 1.2.
LVVFTASMEIPGSAVADKLDNSRS showed a protein stability index of 2.01.
Variant LVVFTASMEIYGSAVADKLDNSGS has a protein stability index of 1.66.
Work on LVVFTASMEIYGSAVALKLDNSRS yielded a protein stability index of 3.58.
In the case of LVVFTKSMEIYGSAVADKLDNSRS, the protein stability index is reported as 1.41.
LVVFTASMEIYGSAVPDKLDNSRS showed a protein stability index of 3.45.
In the case of GVVFTASMEIYGSAVADKLDNSRS, the protein stability index is reported as 2.31.
LVLFTASMEIYGSAVADKLDNSRS gave a protein stability index of 1.71.
LVAFTASMEIYGSAVADKLDNSRS gave a protein stability index of 2.48.

Source: the supplement of paper PMC10567573
